Our source for the Kd values is patent US20260285997 (published 2026).

Values joined by “and” are separate entries in the source; they are usually repeats but may differ in a detail not shown here. Identical values can stand only once.

The chains are these.
T1: CD206 (human, UniProt P22897)
T1 chain: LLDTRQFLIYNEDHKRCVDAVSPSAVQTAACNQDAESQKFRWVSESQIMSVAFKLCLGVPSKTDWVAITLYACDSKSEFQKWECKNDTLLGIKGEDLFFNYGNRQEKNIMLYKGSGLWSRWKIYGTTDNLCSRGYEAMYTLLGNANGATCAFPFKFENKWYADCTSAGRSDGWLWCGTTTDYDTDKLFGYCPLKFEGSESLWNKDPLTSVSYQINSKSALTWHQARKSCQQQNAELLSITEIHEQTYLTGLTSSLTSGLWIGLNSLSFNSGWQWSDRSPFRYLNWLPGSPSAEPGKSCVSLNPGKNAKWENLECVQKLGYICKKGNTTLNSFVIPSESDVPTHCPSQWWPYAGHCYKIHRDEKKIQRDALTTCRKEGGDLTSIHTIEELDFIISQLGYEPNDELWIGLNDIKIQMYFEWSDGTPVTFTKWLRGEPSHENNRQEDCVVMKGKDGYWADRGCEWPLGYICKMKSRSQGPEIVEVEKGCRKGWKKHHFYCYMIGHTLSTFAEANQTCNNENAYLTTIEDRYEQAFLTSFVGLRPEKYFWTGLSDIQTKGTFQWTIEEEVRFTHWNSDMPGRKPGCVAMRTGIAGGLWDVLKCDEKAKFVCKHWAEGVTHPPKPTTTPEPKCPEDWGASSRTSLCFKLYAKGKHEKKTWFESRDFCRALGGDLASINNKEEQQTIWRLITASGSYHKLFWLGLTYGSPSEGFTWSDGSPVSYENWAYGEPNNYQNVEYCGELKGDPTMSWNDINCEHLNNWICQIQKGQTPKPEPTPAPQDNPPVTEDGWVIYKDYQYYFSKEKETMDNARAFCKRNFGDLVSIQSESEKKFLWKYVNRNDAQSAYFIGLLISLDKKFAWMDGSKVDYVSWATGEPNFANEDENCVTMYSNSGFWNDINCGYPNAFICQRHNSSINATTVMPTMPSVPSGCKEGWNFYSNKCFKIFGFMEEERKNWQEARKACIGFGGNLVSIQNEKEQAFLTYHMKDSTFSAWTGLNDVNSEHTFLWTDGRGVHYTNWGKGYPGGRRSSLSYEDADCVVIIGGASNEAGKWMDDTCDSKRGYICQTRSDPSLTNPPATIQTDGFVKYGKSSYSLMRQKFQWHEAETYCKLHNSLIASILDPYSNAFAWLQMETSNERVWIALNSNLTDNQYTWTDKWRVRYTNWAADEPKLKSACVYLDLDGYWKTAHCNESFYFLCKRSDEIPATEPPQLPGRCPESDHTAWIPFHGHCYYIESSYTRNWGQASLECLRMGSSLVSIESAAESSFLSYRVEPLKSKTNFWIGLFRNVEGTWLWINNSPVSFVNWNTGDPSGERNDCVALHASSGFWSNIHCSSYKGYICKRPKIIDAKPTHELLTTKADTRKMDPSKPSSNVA

B1: BEAT 1a1 CD40 arm (antibody, V domains shown)
VH: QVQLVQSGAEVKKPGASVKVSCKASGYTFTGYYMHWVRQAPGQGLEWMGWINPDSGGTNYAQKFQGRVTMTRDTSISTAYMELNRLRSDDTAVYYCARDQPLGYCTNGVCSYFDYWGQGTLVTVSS
VL: DIQMTQSPSSVSASVGDRVTITCRASQGIYSWLAWYQQKPGKAPNLLIYTASTLQSGVPSRFSGSGSGTDFTLTISSLQPEDFATYYCQQANIFPLTFGGGTKVEIK
B2: BEAT 1b4 CD40 arm (antibody, V domains shown)
VH: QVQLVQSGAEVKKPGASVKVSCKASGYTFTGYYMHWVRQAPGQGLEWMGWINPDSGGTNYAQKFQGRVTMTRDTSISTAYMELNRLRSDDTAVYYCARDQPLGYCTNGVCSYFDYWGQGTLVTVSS
VL: DIQMTQSPSSVSASVGDRVTITCRASQGIYSWLAWYQQKPGKAPNLLIYTASTLQSGVPSRFSGSGSGTDFTLTISSLQPEDFATYYCQQANIFPLTFGGGTKVEIK
B3: BEAT 1a4 CD40 arm (antibody, V domains shown)
VH: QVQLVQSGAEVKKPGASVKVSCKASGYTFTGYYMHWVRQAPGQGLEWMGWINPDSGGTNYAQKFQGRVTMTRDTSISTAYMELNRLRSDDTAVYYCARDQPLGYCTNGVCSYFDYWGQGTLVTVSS
VL: DIQMTQSPSSVSASVGDRVTITCRASQGIYSWLAWYQQKPGKAPNLLIYTASTLQSGVPSRFSGSGSGTDFTLTISSLQPEDFATYYCQQANIFPLTFGGGTKVEIK
B4: BEAT 1a5 CD40 arm (antibody, V domains shown)
VH: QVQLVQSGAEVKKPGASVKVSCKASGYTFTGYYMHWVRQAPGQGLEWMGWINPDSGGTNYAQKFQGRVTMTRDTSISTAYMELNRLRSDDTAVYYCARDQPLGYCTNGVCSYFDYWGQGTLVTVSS
VL: DIQMTQSPSSVSASVGDRVTITCRASQGIYSWLAWYQQKPGKAPNLLIYTASTLQSGVPSRFSGSGSGTDFTLTISSLQPEDFATYYCQQANIFPLTFGGGTKVEIK
B5: anti-CD40 IgG2 (antibody, V domains shown)
VH: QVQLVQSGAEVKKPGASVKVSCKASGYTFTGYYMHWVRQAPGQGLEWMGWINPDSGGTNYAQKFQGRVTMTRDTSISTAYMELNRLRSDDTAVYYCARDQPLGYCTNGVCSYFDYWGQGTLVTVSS
VL: DIQMTQSPSSVSASVGDRVTITCRASQGIYSWLAWYQQKPGKAPNLLIYTASTLQSGVPSRFSGSGSGTDFTLTISSLQPEDFATYYCQQANIFPLTFGGGTKVEIK
B6: BEAT 1b2 CD40 arm (antibody, V domains shown)
VH: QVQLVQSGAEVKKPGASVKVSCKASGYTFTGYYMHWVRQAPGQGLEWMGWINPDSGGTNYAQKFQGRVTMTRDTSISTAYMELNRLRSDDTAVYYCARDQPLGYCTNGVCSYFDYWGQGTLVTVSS
VL: DIQMTQSPSSVSASVGDRVTITCRASQGIYSWLAWYQQKPGKAPNLLIYTASTLQSGVPSRFSGSGSGTDFTLTISSLQPEDFATYYCQQANIFPLTFGGGTKVEIK
B7: BEAT 1a2 CD40 arm (antibody, V domains shown)
VH: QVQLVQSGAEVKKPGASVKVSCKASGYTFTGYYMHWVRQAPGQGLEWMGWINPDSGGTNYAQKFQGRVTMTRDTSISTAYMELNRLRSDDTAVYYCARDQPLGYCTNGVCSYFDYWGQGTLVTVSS
VL: DIQMTQSPSSVSASVGDRVTITCRASQGIYSWLAWYQQKPGKAPNLLIYTASTLQSGVPSRFSGSGSGTDFTLTISSLQPEDFATYYCQQANIFPLTFGGGTKVEIK
B8: BEAT 1a3 CD40 arm (antibody, V domains shown)
VH: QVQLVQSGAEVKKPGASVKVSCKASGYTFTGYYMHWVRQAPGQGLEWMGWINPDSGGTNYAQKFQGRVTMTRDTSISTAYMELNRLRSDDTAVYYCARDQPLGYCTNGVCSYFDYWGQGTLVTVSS
VL: DIQMTQSPSSVSASVGDRVTITCRASQGIYSWLAWYQQKPGKAPNLLIYTASTLQSGVPSRFSGSGSGTDFTLTISSLQPEDFATYYCQQANIFPLTFGGGTKVEIK
B9: BEAT 2b1 CD206 arm (antibody, V domains shown)
VH: EVQLVQSGAEVKKPGESLRISCKGSGDSFTTYWIGWVRQMPGKGLEWMGIIYPGDSDTIYSPSFQGQVTISADKSISTAYLQWSSLKASDTAMYYCTRGDRGVDYWGQGTLVTVSS
VL: DIQMTQSPSSLSASVGDRVTITCRASQGISRWLAWYQQKPEKAPKSLIYAASSLQSGVPSRFSGSGSGTDFTLTISGLQPEDFATYYCQQYNSYPRTFGQGTKVEIK
B10: BEAT 2b2 CD206 arm (antibody, V domains shown)
VH: EVQLVQSGAEVKKPGESLRISCKGSGDSFTTYWIGWVRQMPGKGLEWMGIIYPGDSDTIYSPSFQGQVTISADKSISTAYLQWSSLKASDTAMYYCTRGDRGVDYWGQGTLVTVSS
VL: DIQMTQSPSSLSASVGDRVTITCRASQGISRWLAWYQQKPEKAPKSLIYAASSLQSGVPSRFSGSGSGTDFTLTISGLQPEDFATYYCQQYNSYPRTFGQGTKVEIK
B11: BEAT 2a7 CD206 arm (antibody, V domains shown)
VH: EVQLVQSGAEVKKPGESLRISCKGSGDSFTTYWIGWVRQMPGKGLEWMGIIYPGDSDTIYSPSFQGQVTISADKSISTAYLQWSSLKASDTAMYYCTRGDRGVDYWGQGTLVTVSS
VL: DIQMTQSPSSLSASVGDRVTITCRASQGISRWLAWYQQKPEKAPKSLIYAASSLQSGVPSRFSGSGSGTDFTLTISGLQPEDFATYYCQQYNSYPRTFGQGTKVEIK
B12: BEAT 2a5 CD206 arm (antibody, V domains shown)
VH: EVQLVQSGAEVKKPGESLRISCKGSGDSFTTYWIGWVRQMPGKGLEWMGIIYPGDSDTIYSPSFQGQVTISADKSISTAYLQWSSLKASDTAMYYCTRGDRGVDYWGQGTLVTVSS
VL: DIQMTQSPSSLSASVGDRVTITCRASQGISRWLAWYQQKPEKAPKSLIYAASSLQSGVPSRFSGSGSGTDFTLTISGLQPEDFATYYCQQYNSYPRTFGQGTKVEIK
B13: anti-CD206 IgG1 (antibody, V domains shown)
VH: EVQLVQSGAEVKKPGESLRISCKGSGDSFTTYWIGWVRQMPGKGLEWMGIIYPGDSDTIYSPSFQGQVTISADKSISTAYLQWSSLKASDTAMYYCTRGDRGVDYWGQGTLVTVSS
VL: DIQMTQSPSSLSASVGDRVTITCRASQGISRWLAWYQQKPEKAPKSLIYAASSLQSGVPSRFSGSGSGTDFTLTISGLQPEDFATYYCQQYNSYPRTFGQGTKVEIK
B14: BEAT 2a6 CD206 arm (antibody, V domains shown)
VH: EVQLVQSGAEVKKPGESLRISCKGSGDSFTTYWIGWVRQMPGKGLEWMGIIYPGDSDTIYSPSFQGQVTISADKSISTAYLQWSSLKASDTAMYYCTRGDRGVDYWGQGTLVTVSS
VL: DIQMTQSPSSLSASVGDRVTITCRASQGISRWLAWYQQKPEKAPKSLIYAASSLQSGVPSRFSGSGSGTDFTLTISGLQPEDFATYYCQQYNSYPRTFGQGTKVEIK
B15: BEAT 2a4 CD206 arm (antibody, V domains shown)
VH: EVQLVQSGAEVKKPGESLRISCKGSGDSFTTYWIGWVRQMPGKGLEWMGIIYPGDSDTIYSPSFQGQVTISADKSISTAYLQWSSLKASDTAMYYCTRGDRGVDYWGQGTLVTVSS
VL: DIQMTQSPSSLSASVGDRVTITCRASQGISRWLAWYQQKPEKAPKSLIYAASSLQSGVPSRFSGSGSGTDFTLTISGLQPEDFATYYCQQYNSYPRTFGQGTKVEIK
B16: BEAT 2a3 CD206 arm (antibody, V domains shown)
VH: EVQLVQSGAEVKKPGESLRISCKGSGDSFTTYWIGWVRQMPGKGLEWMGIIYPGDSDTIYSPSFQGQVTISADKSISTAYLQWSSLKASDTAMYYCTRGDRGVDYWGQGTLVTVSS
VL: DIQMTQSPSSLSASVGDRVTITCRASQGISRWLAWYQQKPEKAPKSLIYAASSLQSGVPSRFSGSGSGTDFTLTISGLQPEDFATYYCQQYNSYPRTFGQGTKVEIK
B17: BEAT 2a2 CD206 arm (antibody, V domains shown)
VH: EVQLVQSGAEVKKPGESLRISCKGSGDSFTTYWIGWVRQMPGKGLEWMGIIYPGDSDTIYSPSFQGQVTISADKSISTAYLQWSSLKASDTAMYYCTRGDRGVDYWGQGTLVTVSS
VL: DIQMTQSPSSLSASVGDRVTITCRASQGISRWLAWYQQKPEKAPKSLIYAASSLQSGVPSRFSGSGSGTDFTLTISGLQPEDFATYYCQQYNSYPRTFGQGTKVEIK
B18: BEAT 2b4 CD206 arm (antibody, V domains shown)
VH: EVQLVQSGAEVKKPGESLRISCKGSGDSFTTYWIGWVRQMPGKGLEWMGIIYPGDSDTIYSPSFQGQVTISADKSISTAYLQWSSLKASDTAMYYCTRGDRGVDYWGQGTLVTVSS
VL: DIQMTQSPSSLSASVGDRVTITCRASQGISRWLAWYQQKPEKAPKSLIYAASSLQSGVPSRFSGSGSGTDFTLTISGLQPEDFATYYCQQYNSYPRTFGQGTKVEIK
B19: BEAT 2a8 CD206 arm (antibody, V domains shown)
VH: EVQLVQSGAEVKKPGESLRISCKGSGDSFTTYWIGWVRQMPGKGLEWMGIIYPGDSDTIYSPSFQGQVTISADKSISTAYLQWSSLKASDTAMYYCTRGDRGVDYWGQGTLVTVSS
VL: DIQMTQSPSSLSASVGDRVTITCRASQGISRWLAWYQQKPEKAPKSLIYAASSLQSGVPSRFSGSGSGTDFTLTISGLQPEDFATYYCQQYNSYPRTFGQGTKVEIK
B20: BEAT 2b3 CD206 arm (antibody, V domains shown)
VH: EVQLVQSGAEVKKPGESLRISCKGSGDSFTTYWIGWVRQMPGKGLEWMGIIYPGDSDTIYSPSFQGQVTISADKSISTAYLQWSSLKASDTAMYYCTRGDRGVDYWGQGTLVTVSS
VL: DIQMTQSPSSLSASVGDRVTITCRASQGISRWLAWYQQKPEKAPKSLIYAASSLQSGVPSRFSGSGSGTDFTLTISGLQPEDFATYYCQQYNSYPRTFGQGTKVEIK

One assay deals with CD40 (human, UniProt P25942). The assay is described as follows: SPR.
Chain of CD40 (P25942 21-193): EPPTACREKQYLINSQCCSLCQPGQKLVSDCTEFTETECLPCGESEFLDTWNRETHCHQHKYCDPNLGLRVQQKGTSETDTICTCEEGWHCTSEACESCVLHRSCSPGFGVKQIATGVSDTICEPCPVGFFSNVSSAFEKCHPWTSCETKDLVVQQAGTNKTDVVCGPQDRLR
Turning to B1, the Kd (commonly the free concentration of one partner at which half of the binding sites on the other are occupied at equilibrium, for simple one-to-one binding) is 0.574 nM and 0.572 nM and 0.585 nM. On the same count and under the same terms, as for B2, the figure is 0.487 nM and 0.496 nM; as for B3, 0.444 nM and 0.391 nM and 0.467 nM.

B4: the Kd is 0.988 nM and 0.986 nM. Still for that read-out and setting: with B5 the figure was 0.535 nM and 0.7 nM; with B6, 0.444 nM and 0.295 nM. Same read-out and setting: with B7 the figure was 0.471 nM and 0.534 nM; with B8, 0.957 nM and 0.975 nM.

The next assay has as its target T1, CD206. The assay is described as follows: SPR. (In general: In SPR one partner is held on a chip, and binding of the other changes the refractive index at the surface.)
For B9, the Kd was 27.8 nM and 47 nM. On to B10, for which the Kd was 12.7 nM and 13.4 nM. On to B11, for which the Kd was 15.9 nM and 14.3 nM. For B12, the Kd is 30.1 nM and 32.7 nM. The same measure, in the same setting: as for B13, the figure is 11.2 nM and 10.3 nM and 10.5 nM and 11.1 nM; as for B14, 10.3 nM and 10.4 nM; as for B15, 10.3 nM and 11.9 nM. For the molecule B16, the Kd is 22.2 nM and 23.6 nM. On the same count and under the same terms, with B17 the figure was 11.8 nM and 9.48 nM; with B18, 14 nM and 12.4 nM.

In the case of B19, the Kd was 15.8 nM and 15.6 nM. The same measure, in the same setting: as for B20, the figure is 20.1 nM and 21.3 nM.
